The source of these data is US20150361164A1 (EVEC, published 2015).

Experiment [1] deals with T1, HMGB1 C-terminal region synthetic peptide #9 EDEDEEEDDDDE
T1 construct: Synthetic peptide (SIGMA-ALDRICH, PEPScreen), dotted at 4 µg/spot on nitrocellulose
T1 peptide: EDEDEEEDDDDE
Kind of experiment: dot blotting, peptide at 4 µg/spot, antibody at 1 µg/ml. The method, then:
(§1) To identify the positions of amino acids where the epitope of EV007156 against HMGB1 was located from among those constituting the C-terminal end of HMGB1, peptide mapping was conducted. Namely, 9 types of 12-residue long amino acids at 3 residue intervals and the most C-terminal 8 residues, i.e., 10 peptides in total (#1. […] (SEQ ID NO: 51), #2. […] (SEQ ID NO: 52), #3. […] (SEQ ID NO: 53), #4. EEDEEEEEDEED (SEQ ID NO: 54), #5. DEEEEEDEEDED (SEQ ID NO: 55), #6. […] (SEQ ID NO: 56), #7. EEDEEDEDEEED (SEQ ID NO: 57), #8. […] (SEQ ID NO: 58), #9. […] (SEQ ID NO: 59), #10. […] (SEQ ID NO: 60)) were designed to cover all the amino acids constituting the C-terminal region of HMGB1. The peptides thus synthesized (SIGMA-ALDRICH, PEPScreen) were each dissolved at 4 mg/ml in a 0.1 M ammonium acetate solution and added dropwise at 4 μg/spot onto a nitrocellulose membrane. After drying, the membrane was blocked with 5% skimmed milk-TBST for 90 minutes. EV007156 was then reacted for 1 hour at a concentration of 1 μg/ml. Subsequently, HRP-labeled anti-human IgG antibody (MBL, #208) was reacted for 1 hour, followed by detection using ECL prime (GE Healthcare, RPN2232) (FIG. 18). […], and more particularly the most C-terminal 8 residues (#10. […] (SEQ ID NO: 60)).

The target of experiment [2] is T2, HMGB1 most C-terminal 8 residues synthetic peptide #10 EEEDDDDE
T2 construct: Synthetic peptide (SIGMA-ALDRICH, PEPScreen), dotted at 4 µg/spot on nitrocellulose
T2 peptide: EEEDDDDE
Described as above. The method, then:
as §1

B1: #10-22 humanized antibody EV007156 (antibody, human IgG1, lambda, V domains shown)
VH: EVQLVESGGGLVQPGGSLKLSCAASGFTFSNAAMYWVRQASGKGLEWVARIRTKPNNYATYYADSVKGRFTISRDDSKNTAYLQMNSLKTEDTAVYYCTAPRRTEGIVSSGVDYWGQGTLVTVSS
VL: YELTQPPSVSVSPGQTASITCSGDELPKRYAYWYQQKPGQSIVRVIYKDSERPSGIPERFSGSSSGTTATLTISGTQAEDEADYYCHSTYSDDKLPVFGGGTKLTVLG
notes: also called EV007156H + EV007156L
For the molecule B1, the binding result in experiment [1] and in experiment [2] was “binds” each time.
